The values below come from patent US20230235048A1 (PROTHENA BIOSCIENCES, published 2023).

Where a chain is given by its changes, count along the chain named.

By Kd is commonly meant the equilibrium constant for the complex coming apart. Broadly, the koff is the rate constant with which the complex falls apart. In general, kon refers to the second-order rate constant of association. The EC50 is the concentration giving half of the maximal effect.

T1: extracellular domain (ECD) of recombinant human Sortilin with a C-terminal HIS tag (ECD-huSortilin-HIS) (human, UniProt Q99523 78-755)
T1 construct: Bought (R&D Systems); also called human sortilin-ECD; not shown: C-terminal HIS tag
T1 sequence: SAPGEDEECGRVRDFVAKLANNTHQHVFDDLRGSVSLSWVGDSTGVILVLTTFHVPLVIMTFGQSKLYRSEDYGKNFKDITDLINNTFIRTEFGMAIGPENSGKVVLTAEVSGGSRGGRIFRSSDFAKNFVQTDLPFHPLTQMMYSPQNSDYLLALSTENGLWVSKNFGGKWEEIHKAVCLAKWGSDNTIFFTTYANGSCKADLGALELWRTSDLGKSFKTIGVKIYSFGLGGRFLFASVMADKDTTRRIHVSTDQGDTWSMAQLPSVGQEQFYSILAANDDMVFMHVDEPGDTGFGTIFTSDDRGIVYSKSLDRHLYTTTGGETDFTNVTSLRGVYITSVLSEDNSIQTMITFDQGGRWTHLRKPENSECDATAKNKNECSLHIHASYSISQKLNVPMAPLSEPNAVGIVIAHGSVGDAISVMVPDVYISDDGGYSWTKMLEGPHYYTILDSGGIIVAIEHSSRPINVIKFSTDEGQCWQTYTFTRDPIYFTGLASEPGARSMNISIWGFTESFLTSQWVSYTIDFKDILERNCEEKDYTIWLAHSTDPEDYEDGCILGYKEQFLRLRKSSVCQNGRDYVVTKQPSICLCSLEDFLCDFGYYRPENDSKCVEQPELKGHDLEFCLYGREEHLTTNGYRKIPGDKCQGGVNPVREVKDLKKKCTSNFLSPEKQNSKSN

T2: human sortilin on the cell surface (recombinant huSortilin on HEK 293 cells; endogenous on U251MG cells) (human, UniProt Q99523 78-831)
T2 construct: whole, on cells; also called huSortilin expressing HEK293 cells; cell surface huSortilin
T2 sequence (looked up): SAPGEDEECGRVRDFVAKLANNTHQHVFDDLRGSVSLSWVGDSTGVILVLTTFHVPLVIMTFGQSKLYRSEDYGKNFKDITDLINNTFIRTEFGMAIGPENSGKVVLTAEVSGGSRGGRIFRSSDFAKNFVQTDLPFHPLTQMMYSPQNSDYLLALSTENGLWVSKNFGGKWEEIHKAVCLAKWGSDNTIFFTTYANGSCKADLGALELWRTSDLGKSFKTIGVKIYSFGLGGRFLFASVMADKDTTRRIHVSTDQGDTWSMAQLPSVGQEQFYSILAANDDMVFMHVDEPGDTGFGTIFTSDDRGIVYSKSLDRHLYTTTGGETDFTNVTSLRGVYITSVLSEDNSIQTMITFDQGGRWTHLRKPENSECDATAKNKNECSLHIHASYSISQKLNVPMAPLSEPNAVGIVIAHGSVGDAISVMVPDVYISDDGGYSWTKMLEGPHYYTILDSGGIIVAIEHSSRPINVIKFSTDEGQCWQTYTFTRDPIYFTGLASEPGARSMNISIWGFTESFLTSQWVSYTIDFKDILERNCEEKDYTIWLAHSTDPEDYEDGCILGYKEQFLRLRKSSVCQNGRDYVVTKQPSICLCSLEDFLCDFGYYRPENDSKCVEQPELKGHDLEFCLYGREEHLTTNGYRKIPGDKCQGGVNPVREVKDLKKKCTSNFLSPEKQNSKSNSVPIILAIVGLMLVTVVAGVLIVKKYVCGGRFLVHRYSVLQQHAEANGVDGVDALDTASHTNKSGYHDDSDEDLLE

B1: mouse monoclonal antibody 2P22 (antibody, mouse IgG2b, V domains shown)
VH: EVQLVESGGDLVKPGGSLKLSCAASGFTFSIYGMSWVRQTPDKKLEWVAAISSGGIYTYYPDSVKGRFTISRDNAKNTLYLQMSSLKSADTAMYYCTRNDYDWFAYWGQGTLVTVSA
VL: DIQMTQSPSSLSASLGERVSLTCRASQDIGSSLNWLQQEPDGTIKRLIYATSSLDSGVPKRFSGSRSGSDYSLTISSLESEDFVDYYCLQYASSPYTFGGGTKLEIK
notes: mouse IgG2b, kappa
B2: mouse monoclonal antibody 5M13 (antibody, mouse IgG1, V domains shown)
VH: DVQLQESGPGLVKPSQSLSLTCTVTGYSITSDYAWNWIRQFPGNKLEWMGYISSSGSTSYNPSLKSRISVTRDTSKNQFFLQLNFVTAEDTATYYCAFVTTTMDYWGQGTSVTVSS
VL: DVVMTQTPLSLPVSLGDQASISCRSSQSLVHSNGNTYLHWYLQKPGQSPKLLIYTVSNRFSGVPDRFSGSGSGTDFTLKISRVEAEDLGVYFCSQSTHVPFTFGSGTKLEIK
notes: mouse IgG1, kappa
B3: mouse monoclonal antibody 11M14 (antibody, mouse IgG1, V domains shown)
VH: EVQLVESGGDLVKPGGSLKLSCAASGFTFNIYGMSWVRQTPDKRLEWVATISSGGIYTYYPDILKGRFTISRDNAKNTLYLQMSSLKSEDTAMYYCARHPGGAMDYWGQGTSVTVSS
VL: DIQMTQSPASLSVSVGETVTITCRVSENIYSNLAWYQQKQGKSPHLLVYAATNLADGVPSRFSGSGSGTQYSLKINSLQSEDFGSYYCQHFWGTPPWTFGGGTKLEIK
notes: mouse IgG1, kappa; also called ms11M14
B4: mouse monoclonal antibody 2F18 (antibody, mouse IgG1, V domains shown)
VH: B3 VH with S53T, I63S, L64V, G101V, M104L
VL: B3 VL with M4V, V25A, A50T, N53T
notes: mouse IgG1, kappa
B5: mouse monoclonal antibody 2C14 (antibody, mouse IgG1, V domains shown)
VH: EVQLVESGGDLVKPGGSLKLSCAASGFTFNTHGMSWVRQTPDKSLEWVATISTGGFYTSYPDSVKGRFTISRDNAKNTLFLQMSSLKSEDTAMYYCAKSSSHWYFDVWGTGTTVTVSS
VL: DILMTQSPSSMSVSLGDTVSITCHASQGISSNIGWLQQKPGKSFKGLIYHGTNLEDGVPSRFSGSGSGADYSLTISSLEYEDFADYYCVQYAHFPYTFGGGTKLEIK
notes: mouse IgG1, kappa
B6: mouse monoclonal antibody 5E20 (antibody, mouse IgG1, V domains shown)
VH: EVQLVESGGDLVKPGGSLKLSCAAPGFTFSTYGMSWVRQTPDKRLEWVAIISSGGSYTYYSDTVKGRFTISRDNAKNTLYLQMSSLKSEDTAMYYCSRSSSHWYFDVWGTGTTVTVSS
VL: B5 VL with E55K, Y71F, Y80S, Y87F, H93Q, I106K, K107R
notes: mouse IgG1, kappa; also called ms5E20; ms5E20new

The first experiment addresses T1, extracellular domain (ECD) of …. Briefly: SPR (Biacore T200), mAb captured by anti-mouse antibody on CM5, Sortilin 0.1-300 nM as analyte, global 1:1 fit. The protocol:
Analysis was performed using a Biacore T200 to compare the binding affinity of murine anti-huSortilin antibodies to recombinant human Sortilin. Anti-mouse antibody was immobilized on sensor chip CM5 (GE Healthcare Life Sciences) via amine coupling, and mouse antibodies (ligand) were captured to a level to ensure a maximum binding of analyte of 50 RU (approximately 100RU of ligand binding). Various concentrations of Sortilin (ranging from 0.1 nM to 300 nM) were passed over the captured ligand at […] in running buffer (HBS+0.05% P-20, 1 mg/mL BSA) for 180-300s association time and 300-900s dissociation time. Regeneration of the chip surface was accomplished by 2 short injections of 10 mM Glycine-HCl at pH 1.7. Data was blank subtracted to both a sensor not containing ligand and 0 nM analyte concentration. Analysis was performed using a global 1:1 fit with Biacore Insight Evaluation software (v2.0) with bulk refractive index set to zero RU.
With B1, the Kd is 2.21 nM.
On to B2, for which the dissociation constant Kd is 2.29 nM, the koff stood at 0.000411 s⁻¹ and the kon amounted to 179000 M⁻¹ s⁻¹.
As for B3, the Kd came out at 6.24 nM.
Turning to B4, the Kd is 2.81 nM.
Turning to B5, the Kd came to 11.8 nM.
Regarding B6, the Kd was determined as 1.59 nM.

The next experiment addresses T2, human sortilin on the cell surface …. Briefly: cell-based blocking titration (flow cytometry), huSortilin HEK293 cells; blocked ligand 30 nM huPGRN-Biotin. The procedure: Cells were cultured using standard methods. […] Cells were then washed twice in PBS+2% FBS and incubated for 30 minutes on ice with 50 uL per well 1:200 Steptavidin-APC (BD biosciences) in PBS+2% FBS. Cells were then washed as above and resuspended in 100 uL PBS+2% FBS. Data was acquired using the BD LSR II and analyzed using FlowJo software version 10.6 and Microsoft excel.
The cell-based blocking assay was repeated with the top 12 blocking mAbs using a dose titration from 67 nM to 0.4 nM. Blocking assay was carried out as above. Data was analyzed using FlowJo software version 10.6. and GraphPad Prism software.
On the technique in general: A flow cytometer gives signals particle by particle.
As for B1, the “% Max blocking at 11nM mAb” value was determined as 40%.
Regarding B2, the “% Max blocking at 11nM mAb” value was 0%.
As to B3, the “% Max blocking at 11nM mAb” value was determined as 48%.
Consider B4, for which the “% Max blocking at 11nM mAb” value was 41%.
Consider B5, for which the “% Max blocking at 11nM mAb” value was 64%.
With B6, the “% Max blocking at 11nM mAb” value was 54%.

The next experiment has as its target T1, extracellular domain (ECD) of …. Briefly: ELISA, Ab binding to hSortilin-ECD. The protocol: Purified anti-huSortilin mAb binding to huSortilin was characterized by ELISA (ELISA protocol as in Example 1) using a 12 point titration of mAb concentration. mAbs were diluted 2-fold from a starting concentration of 67 nM and then added to ECD-huSortilin-HIS coated plates. Data was analyzed and EC₅₀ (nM) was calculated using graphed Prism. Commercially available goat anti-huSortilin (R&D Biosystems) was used as a positive control. Results are depicted in FIG. 8.
On the technique in general: An ELISA detects its analyte on a solid surface through an enzyme-linked reagent.
With B1, the EC50 worked out at 0.8 nM.
The same measure, in the same setting: as for B2, the figure is 2.7 nM; as for B3, 0.8 nM; as for B4, 0.7 nM.
Regarding B5, the EC50 is 1 nM.
On the same count and under the same terms, to B6 belongs 1.1 nM.

The next experiment has the same target. Briefly: blocking ELISA, coated ECD-huSortilin-HIS; blocked ligand huPGRN-Biotin.
On to B1, for which the “% Blocking at 7.4nM mAb” value was found to be 67%.
For B2, the “% Blocking at 7.4nM mAb” value is 27%.
Same read-out and setting: to B3 belongs 75%; to B4, 76%; to B5, 79%.
As to B6, the “% Blocking at 7.4nM mAb” value worked out at 76%.
